{
  "source": "the DeepSol protein solubility set",
  "data": [
    {"experiment": "soluble on expression in E. coli; label from the status in PepcDB or PDB records", "values": [
      {"sequence": "ILTAGPTVDGRNIEQSVIDDIAETYDPKRYNARINEEHWSWSDKFGSVLSVEKRDDQLFAVLKPNSLLLSTIEKGQLLHTSCEIRANFQGTGKSYLTGLALTDEPASVGTTEMHLSAKEKNKDKSYFSSGATISKDDLSNNIDVDVQEDRKFLSRLKQLLSLGEPDKTQSLEESEDMNEELKELLQAQTAAVTALTAQVTSLAATLNKEESAPVEEENNETELAEKVDALSTKLDDVVTKLSNITDEPNRNLAGVDGDTEY", "soluble on expression in E. coli": "not soluble"},
      {"sequence": "INIEIAYAFPERYYLKSFQVDEGITVQTAITQSGILSQFPEIDLSTNKIGIFSRPIKLTDVLKEGDRIEIYRPLLADPKEIRRK", "soluble on expression in E. coli": "not soluble"},
      {"sequence": "INMEEIREFAKNFKIRRLSLGLTQTQVGQAMTATEGPAYSQSAISRFEKLDITPKSAQKLKPVLEKWLNEAELRNQEGQQNLMEFVGGEPSKKRKRRTSFTPQAIEALNAYFEKNPLPTGQEITEMAKELNYDREVVRVWFSNRRQTLKNT", "soluble on expression in E. coli": "soluble"},
      {"sequence": "IPTKFVQKVTITKEGKKRVAPQLLTTLSA", "soluble on expression in E. coli": "soluble"},
      {"sequence": "ISEFSDWQETLLEHLTQWVEAEIERDIAVDSHEESQRLLEATFNSPETFIGILDADGTLIRANETALGFIDADAADVCGEPFCETPWWNHDEAVANRCREAVERTRAGETVRFEAEHVGADGQRISTSVVARPVTAD", "soluble on expression in E. coli": "not soluble"},
      {"sequence": "IVRPPFTYATLIRQAIMESSDRQLTLNEIYSWFTRTFAYFRRNAATWKNAVRHNLSLHKCFVRVENVKGAVWTVDEVEYQKRRSQKITGSPTL", "soluble on expression in E. coli": "soluble"},
      {"sequence": "IVSFYQEQIIRSALALKLHQYEDTGGIIAAGTTSLPESDGATRNWDYRYCWMRDTYYTLQAFNTIGHFEESEKYFHYIENIVANELDRIQPLYTLDCSKKIEEIELDLEGYKGNKPVRVGNDAYTHIQNDVYGQILASITPLFTDRRLLHGNQFSTDIVYKLLAFIDKTMNEKDAGLWEFRHLKQLHCYTFLFHWVGAKSALKIGQLYGDHELIRKSTATIDKAAEMIERCYDPVRKVYTQAVGSTYLDASCIQLISMHYLDPSSEKARLHLKAIEEDLMVKDGLLFRYKHEDDFGKPEVTFLVCAFWYVDALASVGRIDDAIKAFESLLTYTNHVGLLSEDVGLDGSQWGNFPQTYSHVGLMNSAYRIAKKLDRPS", "soluble on expression in E. coli": "not soluble"},
      {"sequence": "KALYSKPGSKNGRWNPETHKFCKCGVRIQTSAYTCSKCRNRSGENNSFFNHKHSDITKSKISEKMKGKKPSNIKKISCDGVIFDCAADAARHFKISSGLVTYRVKSDKWNWFYINA", "soluble on expression in E. coli": "soluble"},
      {"sequence": "KDWEKVVYGFATLYICSFVLDQVVNSARQSVQFFIISNKYEEIGRHINEYPHRGVTIINATGFYTGREVKMMFVLAKKRESTIIFRLIKDIDPNAFVSQSAVIGVYGEGFDHIKVK", "soluble on expression in E. coli": "not soluble"},
      {"sequence": "KDWTQYVNPLMGSQSTFELSTGNTYPAIARPWGMNFWTPQTGKMGDGWQYTYTANKIRGFKQTHQPSPWINDYGQFSIMPIVGQPVFDEEKRASWFAHKGEVATPYYYKVYLAEHDIVTEMTPTERAVLFRFTFPENDHSYVVVDAFDKGSYIKIIPEENKIIGYTTRNSGGVPENFKNYFIIEFDKPFTYKATVENGNLQENVAEQTTDHAGAIIGFKTRKGEQVNARIASSFISFEQAAANMNELGKDNIEQLAQKGKDAWNQVLGKIEVEGGNLDQYRTFYSCLYRSLLFPRKFYELDANGQPIHYSPYNGQVLPGYMFTDTGFWDTFRCLFPLLNLMYPSVNKEMQEGLINTYLESGFFPEWASPGHRGCMVGNNSASILVDAYMKGVKVDDIKTLYEGLIHGTENVHPEVSSTGRLGYEYYNKLGYVPYDVKINENAARTLEYAYDDWCIYRLAKELKRPKKEISLFAKRAMNYKNLFDKESKLMRGRNEDGTFQSPFSPLKWGDAFTEGNSWHYTWSVFHDPQGLIDLMGGKEMFVTMMDSVFAVPPIFDDSYYGQVIHEIREMTVMNMGNYAHGNQPIQHMIYLYDYAGQPWKAQYWLRQVMDRMYTPGPDGYCGDEDNGQTSAWYVFSALGFYPVCPGTDEYVMGTPLFKKATLHFENGNSLVIDAPNNSTENFYIDSMSFNGADHTKNYLRHEDLFKGGTIKVDMSNRPNLNRGTKEEDMPYSFSKELEHHHHHH", "soluble on expression in E. coli": "soluble"},
      {"sequence": "KFDESALVPEDQFLAQHPGPATIRVSKPNENDGQFMEITVQSLSENVGSLKEKIAGEIQIPANKQKLSGKAGFLKDNMSLAHYNVGAGEILTLSLRER", "soluble on expression in E. coli": "soluble"},
      {"sequence": "KGDDTYYIIFTSGTTGKPKGVQISHDNLLSFTNWMINAEAFATPHRPQMLAQPPYSFDLSVMYWAPTLALGGTLFALPKEITADFKQLFTTINQLPIGVWTSTPSFVDMAMLSDDFNAQQLPHLTHFYFDGEELTVKTAKKLRQRFPQARIVNAYGPTEATVALSALAVTDKML", "soluble on expression in E. coli": "not soluble"},
      {"sequence": "KKPEGKPDQKFDQKQELGRVIHLSNLPHSGYSDSAVLKLAEPYGKIKNYILMRMKSQAFIEMETREDAMAMVDHCLKKALWFQGRCVKVDLSEKYKKLV", "soluble on expression in E. coli": "soluble"},
      {"sequence": "KKQITVLDLHPGAGKTRRILPQIIKEAINRRLRTAVLAPTRVVAAEMAEALRGLPIRYQTSAVAREHNGNEIVDVMCHATLTHRLMSPHRVPNYNLFVMDEAHFTDPASIAARGYISTRVELGEAAAIFMTATPPGTSDPFPESNAPISDLQTEIPDRAWNSGYEWITEYIGKTVWFVPSVKMGNEIALCLQRAGKKVIQLNRKSYETEYPKCKNDDWDFVVTTDISEMGANFKASRVIDSRKSVKPTIITEGEGRVILGEPSAVTAASAAQRRGRTGRNPSQAGDEYCYGGHTNEDDSNCAHWTEARIMLDNINMPNGLIAQFYQPEREKVYTMDGEYRLRGEERKNFLELLRTADLPVWLAYKVAAAGVSYHDRRWCFDGPRTNTILEDNNEVEVITKLGERKILRPRWIDARVYSDHQALKSFKDFASGKR", "soluble on expression in E. coli": "soluble"},
      {"sequence": "KLLEHVRNILPPNITCLYIRQAEALGLGHAVLCARAAIGDEPFAVILADDLIDAPKGALKQMVEVYGRSGNSILGVETVEASQTGSYGIVETEQLKQFQRITGIVEKPKPEDAPSNLAVVGRYILTPRIFDLLTNLPRGAGNEIQLTDGIAKLLDHEFVLAHPFEGTRYDCGSKLGYLEATVAYGLKHPETGEPFRRLLEKYRTE", "soluble on expression in E. coli": "not soluble"},
      {"sequence": "KMGKTPKTEILSFEQYQVTPYLSGLLELDPDTEVFELERLRIADDMPLMFERSYIPAQPFQGLSIADLKRKALYDIFAKDYQETIRLAEEEFYASIALDYEAGLLGIKKGDPVLHIIRKTYNDKNILIELTFSIARADQFRYRVQHHPNG", "soluble on expression in E. coli": "not soluble"},
      {"sequence": "KNASVITVGNEILKGRTVNTNAAFIGNFLTYHGYQVRRGFVVMDDLDEIGWAFRVALEVSDLVVSSGGLGPTFDDMTVEGFAKCIGQDLRIDEDALAMIKKKYGQADLTPQRLKMAKIPPSCRPIENPVGTAPGLICAVGGKKVIILPGVPKEMEALLKAMEKDIIIPD", "soluble on expression in E. coli": "soluble"},
      {"sequence": "KPTAEVVPVNRGFHFQTNKVPSESDVFKHNYDLTFSLNFTNKSNDIYGTGWLFDWKGDEKALGIDGSFVPSITSNIDNSLLKDDQFTVYLATNLHVADALRNDQDYEPYKKDQNKQDFTENTKTEFFSLGKYLEGEQLKQYISKEENQSANQTDKALVSIQASNIPKTAYTATDFVDMNSYSYNNITTSLPGNYADFAVI", "soluble on expression in E. coli": "not soluble"},
      {"sequence": "KQAQVDYLALPGDAKLDTRSVDYKCENGRKFTVQYLNKGDNSLAVVPVSDNSTLVFSNVISASGAKYAAGQYIWWTKGEEATLYGDWKGGEPTDGVACKER", "soluble on expression in E. coli": "soluble"},
      {"sequence": "KQWVWSAESPIETNILKLLPKNQQNPVAEQAFESVSASMSDKVIFVITAPDKNALFAAAAEFDKGLRQSNHFRDVVGKISPQEQQAWASYYFKHRFQLLTPEQRERLSQNPEQQVQHVIQSLYNPFSGVTGQELQSDPFLLFRDYLSQVTQQSSSFRLDNGYLSVEKDGAQYLLITAELKESPYSLTGQLAVPDIQALEQSVAQKYGAEVAHTGVLFYADFGTQSAKSE", "soluble on expression in E. coli": "soluble"},
      {"sequence": "KRAVDARTVGRMIRMSGCPDESASAKAVDWFVLMFMLRGIPFVDLAHLRRSNLDKGVLTYCRHKTGQEVSISVPREAMEIINRRMVENCHPSYLLPILGQPRTRKRHTKKALTPYQEYQYALRNLNRRLERVSVDLRLGGRLSSYTARHTWATIAFHQETPVGVISRGLGHSSVKVTETYLKPFGDREVDRTNRKILNYVLNAV", "soluble on expression in E. coli": "not soluble"},
      {"sequence": "KTDDPRFKIYKLAYSAFLSRITVKDVIWNKDKGIKLMDGYYWDFINDPHLLVAGGTGGGKTVLLRSILRCLAEIGVCDICDPKRADFVTMSDLSAFEGRIAFEKADIIEKFENAVTIMFARYDFVRNEMKRLGHKDMKKFYDYGLEPYFFVCDEYNALMSSLSYQEREIVDNAFTQYILLGRQVGCNAIIAMQKPSA", "soluble on expression in E. coli": "not soluble"},
      {"sequence": "KTDPRSMNSRVFIGNLNTLVVKKSDVEAIFSKYGKIVGCSVHKGFAFVQYVNERNARAAVAGEDGRMIAGQVLDINLAAEPKVNR", "soluble on expression in E. coli": "soluble"},
      {"sequence": "KVMMPKVEERDDSEAPKAFFSEYEICNPALDGKSVREVALLLKRPFVITRVWHNGKVEIPTSDMILYFGDHILAVSGEEDTSQLEILFGKREMKDWNRPDIDWNSVDKQLVSRRLVITRPKLNGVRLGMLKIRNLYGVNISRVDRAGVELLPDRDLRLQLGDRLTVVGEGKAVERVAEILGDEVKQLDNPH", "soluble on expression in E. coli": "not soluble"},
      {"sequence": "LALLYEVTCLNKPGLVDPVDAGAHQDMDVFTFLESSVVLTPYFETFVQAGTELRHLPIEATFRTIRQVGLEAERAMFEATEGINTHKGAIFSLGIFLAVCGRLMIWETPCTLQLFQQTLQTMTQDLLADFENLATNELEKLTWGERLFVQHGLTGIRGEAQQGYPAVFEQGVPYYQKHQGTQQQKLIDTLLYLSLYVEDTNLIKRSQNVQIFEVYQPLIQEYFALGGTQTLRGTLCLERLNHLFKEKNWSIGGSADALILVV", "soluble on expression in E. coli": "not soluble"},
      {"sequence": "LALVATGNDTTTKPDLYYLKNSEAINSLALLPPPPAVGSIAFLNDQAMYEQGRLLRNTERGKLAAEDANLSSGGVANAFSGAFGSPITEKDAPALHKLLTNMIEDAGDLATRSAKDHYMRIRPFAFYGVSTCNTTEQDKLSKNGSYPSGHTSIGWATALVLAEINPQRQNEILKRGYELGQSRVICGYHWQSDVDAARVVGSAVVATLHTNPAFQQQLQKAKAEFAQHQKK", "soluble on expression in E. coli": "soluble"},
      {"sequence": "LDGVLVPESGILVSVGQDVDSVNDYASALGTIPAGVTNYVGIVNLDGLNSDADAGAGRNNIAELANAYPTSALVVGVSMNGEVDAVASGRYNANIDTLLNTLAGYDRPVYLRWAYEVDGPWNGHSPSGIVTSFQYVHDRIIALGHQAKISLVWQVASYCPTPGGQLDQWWPGSEYVDWVGLSYFAPQDCNWDRVNEAAQFARSKGKPLFLNESTPQRYQVADLTYSADPAKGTNRQSKTSQQLWDEWFAPYFQFMSDNSDIVKGFTYINADWDSQWRWAAPYNEGYWGDSRVQANALIKSNWQQEIAKGQYINHSETLFETLGYGSTHHHHHH", "soluble on expression in E. coli": "soluble"}
    ]}
  ]
}
